Biological target: the molecule itself
Assay: high-speed atomic force microscopy

B1: PDI I289A (enzyme)
chain: not shown
For B1, the “stoichiometry N” value was 2.

Reference: doi:10.1101/2021.01.04.425348 (bioRxiv, 2021)
